# Patent publication US20230220589A1
# Where a chain is given by its changes, count along the chain named.
# B1: engineered M44-A binder (SEQ ID NO: 42) (designed binder, not shown: small tags and cut ends; large carriers)
# chain: QVSVQPNFQQDKFLGRWFVAGLASNSSWDREKVAALSGAKMVVAPATDGGLNVTRTMLRKNQCETYTGLLQPAGSLGSYSWRSPHPGSTGSESVVETDYDQYALVYGQGSKGPGEDLRAAALWSRTQTPRAELKEKFTAFSKAQGFTEDTIVFLPQTDKCMTEQ
# B2: engineered M17-Y binder (SEQ ID NO: 61) (designed binder, not shown: small tags and cut ends; large carriers)
# chain: TVPDRSEIAGKWYVVALASNTEFYLREKDWVKSAMARISFLGEDELKVSSAVPSPNGCYKVERTWKKTSDDGEVYNSRAAKLKVEVLDTDYKSYAVIYATRVKDGRTDHQMILYSRSPEVSPAATAIFRKLAGERNYTDEMVAMLPRQEECTVDEV
# B3: upgraded binder after additional maturation round (SEQ ID NO: 62) (designed binder, not shown: small tags and cut ends; large carriers)
# chain: B2 chain with E27G, W30R, A36V, L41Q, G105R, E119D
# B4: engineered M44-L binder (SEQ ID NO: 31) (designed binder, not shown: small tags and cut ends; large carriers)
# chain: QDSTQNLIPAPPLISVPLQPGFWTERFQGRWFLVGFAGNAVQKERQSRLTMQSLILELQEDNSYNITAINVRGQGCRYIISTLVPSSRPGQFTLGNIHSYPQIQSLDVQVADTDYDQFAMVFLQGTSENKQYFEVALAGRTKGLSDELKERFVSFAKSLGLKDNNIVFSVPTDQCIDN
# Tests used:
# [1] = biological target: M44-modified G NTAA target peptides (M44-G-P2-peptide); assay: encoding assay; P2 Q;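 note: fraction of recording tags encoded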
# [2] = biological target: M44-modified P NTAA target peptides; assay: encoding assay; P2 Q;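 note: fraction of recording tags encoded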
# [3] = biological target: M44-modified T NTAA target peptides; assay: encoding assay; P2 Q;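 note: fraction of recording tags encoded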
# [4] = biological target: M44-modified W NTAA target peptides; assay: encoding assay; P2 Q;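 note: fraction of recording tags encoded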
# [5] = biological target: M44-modified Y NTAA target peptides (M44-Y-P2-peptide); assay: encoding assay; P2 Q;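 note: fraction of recording tags encoded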
# [6] = biological target: M44-modified S NTAA target peptides; assay: encoding assay; P2 Y
# [7] = biological target: M17-modified A NTAA target peptides; assay: encoding assay; P2 E;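 note: fraction of recording tags encoded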
# [8] = biological target: M17-modified E NTAA target peptides; assay: encoding assay; P2 E;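 note: fraction of recording tags encoded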
# [9] = biological target: M17-modified F NTAA target peptides; assay: encoding assay; P2 E;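 note: fraction of recording tags encoded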
# [10] = biological target: M17-modified G NTAA target peptides; assay: encoding assay; P2 E;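 note: fraction of recording tags encoded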
# [11] = biological target: M17-modified H NTAA target peptides; assay: encoding assay; P2 E;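 note: fraction of recording tags encoded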
# [12] = biological target: M17-modified I NTAA target peptides; assay: encoding assay; P2 E;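 note: fraction of recording tags encoded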
# [13] = biological target: M17-modified L NTAA target peptides; assay: encoding assay; P2 E;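 note: fraction of recording tags encoded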
# [14] = biological target: M17-modified M NTAA target peptides; assay: encoding assay; P2 E;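 note: fraction of recording tags encoded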
# [15] = biological target: M17-modified T NTAA target peptides; assay: encoding assay; P2 E;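 note: fraction of recording tags encoded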
# [16] = biological target: M17-modified W NTAA target peptides; assay: encoding assay; P2 E;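 note: fraction of recording tags encoded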
# [17] = biological target: M17-modified D NTAA target peptides; assay: encoding assay; P2 I;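 note: fraction of recording tags encoded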
# [18] = biological target: M17-modified E NTAA target peptides; assay: encoding assay; P2 I;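 note: fraction of recording tags encoded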
# [19] = biological target: M17-modified S NTAA target peptides; assay: encoding assay; P2 I;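 note: fraction of recording tags encoded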
# [20] = biological target: M17-modified V NTAA target peptides; assay: encoding assay; P2 I;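 note: fraction of recording tags encoded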
# [21] = biological target: M17-modified W NTAA target peptides; assay: encoding assay; P2 I;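 note: fraction of recording tags encoded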
# [22] = biological target: M17-modified Y NTAA target peptides (M17-Y-P2-peptide); assay: encoding assay; P2 I;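 note: fraction of recording tags encoded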
# [23] = biological target: M17-modified A NTAA target peptides; assay: encoding assay; P2 Q;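 note: fraction of recording tags encoded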
# [24] = biological target: M17-modified D NTAA target peptides; assay: encoding assay; P2 Q;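 note: fraction of recording tags encoded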
# [25] = biological target: M17-modified E NTAA target peptides; assay: encoding assay; P2 Q;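 note: fraction of recording tags encoded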
# [26] = biological target: M17-modified F NTAA target peptides; assay: encoding assay; P2 Q;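 note: fraction of recording tags encoded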
# [27] = biological target: M17-modified G NTAA target peptides; assay: encoding assay; P2 Q;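 note: fraction of recording tags encoded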
# [28] = biological target: M17-modified H NTAA target peptides; assay: encoding assay; P2 Q;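 note: fraction of recording tags encoded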
# [29] = biological target: M17-modified I NTAA target peptides; assay: encoding assay; P2 Q;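 note: fraction of recording tags encoded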
# [30] = biological target: M17-modified L NTAA target peptides; assay: encoding assay; P2 Q;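 note: fraction of recording tags encoded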
# [31] = biological target: M17-modified N NTAA target peptides; assay: encoding assay; P2 Q;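 note: fraction of recording tags encoded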
# [32] = biological target: M17-modified P NTAA target peptides; assay: encoding assay; P2 Q;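 note: fraction of recording tags encoded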
# [33] = biological target: M17-modified Q NTAA target peptides; assay: encoding assay; P2 Q;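 note: fraction of recording tags encoded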
# [34] = biological target: M17-modified S NTAA target peptides; assay: encoding assay; P2 Q;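 note: fraction of recording tags encoded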
# [35] = biological target: M17-modified T NTAA target peptides; assay: encoding assay; P2 Q;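 note: fraction of recording tags encoded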
# [36] = biological target: M17-modified V NTAA target peptides; assay: encoding assay; P2 Q;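 note: fraction of recording tags encoded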
# [37] = biological target: M17-modified W NTAA target peptides; assay: encoding assay; P2 Q;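 note: fraction of recording tags encoded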
# [38] = biological target: M17-modified Y NTAA target peptides (M17-Y-P2-peptide); assay: encoding assay; P2 Q;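 note: fraction of recording tags encoded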
# [39] = biological target: M17-modified A NTAA target peptides; assay: encoding assay; P2 Y;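 note: fraction of recording tags encoded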
# [40] = biological target: M17-modified D NTAA target peptides; assay: encoding assay; P2 Y;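 note: fraction of recording tags encoded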
# [41] = biological target: M17-modified E NTAA target peptides; assay: encoding assay; P2 Y;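 note: fraction of recording tags encoded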
# [42] = biological target: M17-modified F NTAA target peptides; assay: encoding assay; P2 Y;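 note: fraction of recording tags encoded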
# [43] = biological target: M17-modified G NTAA target peptides; assay: encoding assay; P2 Y;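 note: fraction of recording tags encoded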
# [44] = biological target: M17-modified H NTAA target peptides; assay: encoding assay; P2 Y;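 note: fraction of recording tags encoded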
# [45] = biological target: M17-modified I NTAA target peptides; assay: encoding assay; P2 Y;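 note: fraction of recording tags encoded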
# [46] = biological target: M17-modified L NTAA target peptides; assay: encoding assay; P2 Y;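 note: fraction of recording tags encoded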
# [47] = biological target: M17-modified M NTAA target peptides; assay: encoding assay; P2 Y;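 note: fraction of recording tags encoded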
# [48] = biological target: M17-modified N NTAA target peptides; assay: encoding assay; P2 Y;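 note: fraction of recording tags encoded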
# [49] = biological target: M17-modified P NTAA target peptides; assay: encoding assay; P2 Y;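 note: fraction of recording tags encoded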
# [50] = biological target: M17-modified Q NTAA target peptides; assay: encoding assay; P2 Y;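 note: fraction of recording tags encoded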
# [51] = biological target: M17-modified S NTAA target peptides; assay: encoding assay; P2 Y;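 note: fraction of recording tags encoded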
# [52] = biological target: M17-modified T NTAA target peptides; assay: encoding assay; P2 Y;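 note: fraction of recording tags encoded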
# [53] = biological target: M17-modified W NTAA target peptides; assay: encoding assay; P2 Y;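 note: fraction of recording tags encoded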
# [54] = biological target: M17-modified Y NTAA target peptides (M17-Y-P2-peptide); assay: encoding assay; P2 Y;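 note: fraction of recording tags encoded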
binder,measurement,setting,value
B1,encoding yield,[1],0.01
same,encoding yield,[2],0.01
same,encoding yield,[3],0.02
same,encoding yield,[4],0.02
same,encoding yield,[5],0.02
same,encoding yield,[6],0.01
B2,encoding yield,[7],0.02
same,encoding yield,[8],0.02
same,encoding yield,[9],0.01
same,encoding yield,[10],0.01
same,encoding yield,[11],0.02
same,encoding yield,[12],0.01
same,encoding yield,[13],0.02
same,encoding yield,[14],0.01
same,encoding yield,[15],0.01
same,encoding yield,[16],0.03
same,encoding yield,[17],0.02
same,encoding yield,[18],0.03
same,encoding yield,[19],0.01
same,encoding yield,[20],0.03
same,encoding yield,[21],0.02
same,encoding yield,[22],0.17
same,encoding yield,[23],0.03
same,encoding yield,[24],0.01
same,encoding yield,[25],0.02
same,encoding yield,[26],0.04
same,encoding yield,[27],0.02
same,encoding yield,[28],0.04
same,encoding yield,[29],0.02
same,encoding yield,[30],0.03
same,encoding yield,[31],0.03
same,encoding yield,[32],0.01
same,encoding yield,[33],0.01
same,encoding yield,[34],0.03
same,encoding yield,[35],0.01
same,encoding yield,[36],0.03
same,encoding yield,[37],0.01
same,encoding yield,[38],0.03
same,encoding yield,[39],0.01
same,encoding yield,[40],0.03
same,encoding yield,[41],0.01
same,encoding yield,[42],0.09
same,encoding yield,[43],0.04
same,encoding yield,[44],0.06
same,encoding yield,[45],0.1
same,encoding yield,[46],0.1
same,encoding yield,[47],0.04
same,encoding yield,[48],0.03
same,encoding yield,[49],0.03
same,encoding yield,[50],0.01
same,encoding yield,[51],0.01
same,encoding yield,[52],0.04
same,encoding yield,[53],0.07
same,encoding yield,[54],0.15
B3,encoding yield,[7],0.03
same,encoding yield,[8],0.03
same,encoding yield,[9],0.02
same,encoding yield,[10],0.02
same,encoding yield,[11],0.02
same,encoding yield,[12],0.02
same,encoding yield,[13],0.02
same,encoding yield,[14],0.01
same,encoding yield,[15],0.02
same,encoding yield,[16],0.06
same,encoding yield,[17],0.02
same,encoding yield,[18],0.03
same,encoding yield,[19],0.02
same,encoding yield,[20],0.05
same,encoding yield,[21],0.04
same,encoding yield,[22],0.31
same,encoding yield,[23],0.04
same,encoding yield,[24],0.02
same,encoding yield,[25],0.02
same,encoding yield,[26],0.04
same,encoding yield,[27],0.01
same,encoding yield,[28],0.03
same,encoding yield,[29],0.03
same,encoding yield,[30],0.04
same,encoding yield,[31],0.04
same,encoding yield,[32],0.02
same,encoding yield,[33],0.01
same,encoding yield,[34],0.03
same,encoding yield,[35],0.02
same,encoding yield,[36],0.04
same,encoding yield,[37],0.02
same,encoding yield,[38],0.15
same,encoding yield,[39],0.03
same,encoding yield,[40],0.03
same,encoding yield,[41],0.03
same,encoding yield,[42],0.1
same,encoding yield,[43],0.06
same,encoding yield,[44],0.06
same,encoding yield,[45],0.12
same,encoding yield,[46],0.11
same,encoding yield,[47],0.02
same,encoding yield,[48],0.02
same,encoding yield,[49],0.05
same,encoding yield,[50],0.01
same,encoding yield,[51],0.01
same,encoding yield,[52],0.04
same,encoding yield,[53],0.12
same,encoding yield,[54],0.21
B4,encoding yield,[1],0.01
same,encoding yield,[2],0.01
same,encoding yield,[3],0.02
same,encoding yield,[4],0.02
same,encoding yield,[5],0.03
same,encoding yield,[6],0.01
